According to article PMC2988979 (Nature structural & molecular biology, 2010):

Molecular target: recombinant HAT1 holoenzyme (HAT1 and RbAp46) (UniProt O14929;Q16576)
Assay: pull-down

Sequence of recombinant HAT1 holoenzyme (HAT1 and RbAp46) (O14929 whole entry, chain 1 of 2): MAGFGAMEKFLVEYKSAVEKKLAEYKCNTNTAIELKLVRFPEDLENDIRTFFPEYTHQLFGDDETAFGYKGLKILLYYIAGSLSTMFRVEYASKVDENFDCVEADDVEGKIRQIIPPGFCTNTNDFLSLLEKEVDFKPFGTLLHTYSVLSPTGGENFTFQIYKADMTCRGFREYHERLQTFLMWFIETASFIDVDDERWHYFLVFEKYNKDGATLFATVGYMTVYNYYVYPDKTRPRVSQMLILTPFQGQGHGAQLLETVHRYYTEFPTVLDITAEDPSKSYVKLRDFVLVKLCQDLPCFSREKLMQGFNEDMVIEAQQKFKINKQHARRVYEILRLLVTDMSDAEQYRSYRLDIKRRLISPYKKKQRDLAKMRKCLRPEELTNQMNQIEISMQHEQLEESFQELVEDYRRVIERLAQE
Sequence of recombinant HAT1 holoenzyme (HAT1 and RbAp46) (Q16576 whole entry, chain 2 of 2): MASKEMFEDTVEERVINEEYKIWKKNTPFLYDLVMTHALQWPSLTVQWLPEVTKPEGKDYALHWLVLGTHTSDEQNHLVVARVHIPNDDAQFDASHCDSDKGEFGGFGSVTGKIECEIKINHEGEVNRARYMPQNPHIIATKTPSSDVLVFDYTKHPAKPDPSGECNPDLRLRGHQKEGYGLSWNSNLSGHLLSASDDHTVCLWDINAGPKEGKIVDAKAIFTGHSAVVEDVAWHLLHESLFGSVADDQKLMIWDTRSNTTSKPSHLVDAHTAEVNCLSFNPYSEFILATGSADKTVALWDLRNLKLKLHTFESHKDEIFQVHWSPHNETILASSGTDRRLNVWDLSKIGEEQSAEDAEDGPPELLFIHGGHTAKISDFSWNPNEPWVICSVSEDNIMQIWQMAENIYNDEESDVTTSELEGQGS

- binding result: binds
B1: GST-tagged ASF1B (natural protein)
chain: MAKVSVLNVAVLENPSPFHSPFRFEISFECSEALADDLEWKIIYVGSAESEEFDQILDSVLVGPVPAGRHMFVFQADAPNPSLIPETDAVGVTVVLITCTYHGQEFIRVGYYVNNEYLNPELRENPPMKPDFSQLQRNILASNPRVTRFHINWDNNMDRLEAIETQDPSLGCGLPLNCTPIKGLGLPGCIPGLLPENSMDCI
